Drawing on article PMC5261807 (2017), this text covers binding score for 34 molecules.

Sequences and labels used below:
T1: Bdf1 bromodomain 1 (GST-tagged, WT) (Saccharomyces cerevisiae (strain ATCC …, UniProt P35817))
T1 chain: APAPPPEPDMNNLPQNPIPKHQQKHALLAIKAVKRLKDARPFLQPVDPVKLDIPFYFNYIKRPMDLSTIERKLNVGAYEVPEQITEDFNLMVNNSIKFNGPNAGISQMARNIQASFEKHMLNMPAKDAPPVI

T2: Bdf1 bromodomain 2 (GST-tagged, WT) (Saccharomyces cerevisiae (strain ATCC …, UniProt P35817))
T2 chain: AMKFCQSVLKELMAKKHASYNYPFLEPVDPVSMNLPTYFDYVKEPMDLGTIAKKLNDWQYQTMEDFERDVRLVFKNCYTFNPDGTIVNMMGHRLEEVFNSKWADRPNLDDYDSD

Non-standard residues stand in square brackets, D forms with d. Primed or numbered codes have the meaning given here. No end group written: not given here. Me2a″ = asymmetric dimethylarginine (Rme2a); Me2s″ = symmetric dimethylarginine (Rme2s); Arg(Me2a) = CN(C)C(=N)NCCC[C@H](N)C(=O)O; Lys(Me3) = C[N+](C)(C)CCCC[C@H](N)C(=O)O; Arg(Me2s) = CN=C(NC)NCCC[C@H](N)C(=O)O; pT = C[C@@H](OP(=O)(O)O)[C@H](N)C(=O)O; Me2a = asymmetric dimethyl (on Arg); Lys(Me2) = CN(C)CCCC[C@H](N)C(=O)O; Me2s = symmetric dimethyl (on Arg); pS = N[C@@H](COP(=O)(O)O)C(=O)O; Lys(Me) = CNCCCC[C@H](N)C(=O)O; Me3″ = trimethyl lysine (Kme3); Me3 = trimethyl (on Lys); Me2 = dimethyl (on Lys)

The first assay has as its target T1, Bdf1 bromodomain 1 (GST-tagged, WT). The assay can be described thus: histone peptide array probed with recombinant GST-bromodomain, signal normalised to myc peptide control.
As for A[Arg(Me2a)]T[Lys(Me2)]QTARK(Ac)STGGKAPRKQ, the binding score was 0.

In the case of RRKKKRRKKKRKRKKRK (R Rme2s K Kme1 Kac R Rme2a Kme2 K Kme3 R Kme1 Rme2s K Kac R K) [background 02], the binding score came to 0.00538.

Consider ARTKQTARKSTGGKAPRKQ (A Rme2a T Kme3 Q T A Rme2s Kme3 S T G G K A P R K Q), for which the binding score is 0.

As for ARTKQTARKSTGGKAPRKQ (A R T Kac Q T A Rme2s Kme2 S T G G K A P R K Q), the binding score worked out at 0.00251.

In the case of ARTKQTARKSTGGKAPRKQ (A R T K Q T A R Kme1 pS T G G K A P R K Q), the binding score stood at 0.

For the molecule ARTKQTARKSTGGKAPRKQ (A R T Kme2 Q T A Rme2a Kme2 S T G G K A P R K Q), the binding score came to 0.

Turning to [pS]GRGKQGGKARAKAKSRSS, the binding score was found to be 0.

As for PRKQLATKAAR[Lys(Me3)]SAPATGG, the binding score was 0.

As to ARTKQTARKSTGGKAPRKQ (A R T K Q T A R Kac S pT G G K A P R K Q), the binding score came to 0.

Regarding A[Arg(Me2a)]T[Lys(Me3)]QTAR[Lys(Me2)]STGGKAPRKQ, the binding score was determined as 0.

As to ARTKQTARKSTGGKAPRKQ (A Rme2s T Kme2 Q T A R Kme1 S T G G K A P R K Q), the binding score was 0.

In the case of PDPAK(Ac)SAPAPKKG[pS]K(Ac)KAVT [H2B 1-19], the binding score worked out at 0.

On to AR(Me2a)TK(Me)QTAR(Me2s)K(Me3)STGGKAPRKQ, for which the binding score is 0.0113.

As to ARTK(Ac)QTAR(Me2a)K(Me2)STGGKAPRKQ, the binding score is 0.00179.

For the molecule ARTK(Ac)QTAR(Me2s″)K(Ac)STGGKAPRKQ, the binding score came to 0.0672.

As to A[Arg(Me2s)]T[Lys(Me)]QTA[Arg(Me2a)][Lys(Me)]STGGKAPRKQ, the binding score was 0.00126.

As for SGRGKGGKGLGKGGAKRHR (S G Rme2s G K G G Kac G L G K G G A K R H R), the binding score was found to be 0.

Take SGRGKGGKGLGKGGAKRHR (S G R G K G G K G L G K G G A Kac R H R): the binding score stood at 0.

For ARTKQTARKSTGGKAPRKQ (A Rme2a T Kac Q T A Rme2a Kme2 S T G G K A P R K Q), the binding score was found to be 0.00143.

ARTKQTARKSTGGKAPRKQ (A Rme2s T Kme3 Q T A Rme2a Kac S T G G K A P R K Q): the binding score was 0.0136.

Turning to ARTKQTA[Arg(Me2a)][Lys(Me)]S[pT]GGKAPRKQ, the binding score is 0.

Consider SGRGKQGGK(Ac)ARAKAKSRSS, for which the binding score stood at 0.00717.

Turning to PRKQLATKAA[Arg(Me2s)][Lys(Me2)]SAPATGG, the binding score came to 0.

Turning to ART[Lys(Me3)]QTA[Arg(Me2a)][Lys(Me2)]STGGKAPRKQ, the binding score is 0.000538.

Regarding ARTKQTARKSTGGKAPRKQ (A R T Kme2 Q T A Rme2a Kac S T G G K A P R K Q), the binding score worked out at 0.0228.

For the molecule PRKQLATKAAR(Me2a″)K(Me3″)[pS]APATGG, the binding score is 0.

As to ARTKQTARKSTGGKAPRKQ (A Rme2s T Kme2 Q T A Rme2a Kme3 S T G G K A P R K Q), the binding score amounted to 0.

On to A[Arg(Me2a)]T[Lys(Me2)]QTA[Arg(Me2a)][Lys(Me3)]STGGKAPRKQ, for which the binding score stood at 0.

Turning to ARTKQTARKSTGGKAPRKQ (A R T K Q T A R Kme3 S pT G G K A P R K Q), the binding score was 0.

In the case of PRKQLATKAAR(Me2a″)K(Ac)[pS]APATGG, the binding score turned out to be 0.00143.

Turning to ARTKQTARKSTGGKAPRKQ (A R T Kme2 Q T A Rme2s Kme2 S T G G K A P R K Q), the binding score worked out at 0.

On to ARTKQTARKSTGGKAPRKQ (A Rme2s T Kme3 Q T A Rme2s Kme1 S T G G K A P R K Q), for which the binding score worked out at 0.00161.

With ARTKQTARKSTGGKAPRKQ (A R T Kac Q T A Rme2a Kac S T G G K A P R K Q), the binding score amounted to 0.0576.

On to ARTKQTARKSTGGKAPRKQ (A Rme2s T Kac Q T A Rme2a Kac S T G G K A P R K Q), for which the binding score is 0.0545.

The next assay concerns the target T2, Bdf1 bromodomain 2 (GST-tagged, WT). Described as above.
For the molecule A[Arg(Me2a)]T[Lys(Me2)]QTARK(Ac)STGGKAPRKQ, the binding score amounted to 0.00108.

Take RRKKKRRKKKRKRKKRK (R Rme2s K Kme1 Kac R Rme2a Kme2 K Kme3 R Kme1 Rme2s K Kac R K) [background 02]: the binding score is 0.006.

On to ARTKQTARKSTGGKAPRKQ (A Rme2a T Kme3 Q T A Rme2s Kme3 S T G G K A P R K Q), for which the binding score is 0.

For the molecule ARTKQTARKSTGGKAPRKQ (A R T Kac Q T A Rme2s Kme2 S T G G K A P R K Q), the binding score worked out at 0.0133.

On to ARTKQTARKSTGGKAPRKQ (A R T K Q T A R Kme1 pS T G G K A P R K Q), for which the binding score was 0.

Regarding ARTKQTARKSTGGKAPRKQ (A R T Kme2 Q T A Rme2a Kme2 S T G G K A P R K Q), the binding score turned out to be 0.000885.

Consider [pS]GRGKQGGKARAKAKSRSS, for which the binding score was found to be 0.00502.

As for PRKQLATKAAR[Lys(Me3)]SAPATGG, the binding score worked out at 0.

In the case of ARTKQTARKSTGGKAPRKQ (A R T K Q T A R Kac S pT G G K A P R K Q), the binding score stood at 0.

Take A[Arg(Me2a)]T[Lys(Me3)]QTAR[Lys(Me2)]STGGKAPRKQ: the binding score is 0.00443.

As to ARTKQTARKSTGGKAPRKQ (A Rme2s T Kme2 Q T A R Kme1 S T G G K A P R K Q), the binding score came out at 0.00895.

For the molecule PDPAK(Ac)SAPAPKKG[pS]K(Ac)KAVT [H2B 1-19], the binding score was 0.168.

In the case of AR(Me2a)TK(Me)QTAR(Me2s)K(Me3)STGGKAPRKQ, the binding score amounted to 0.

Take ARTK(Ac)QTAR(Me2a)K(Me2)STGGKAPRKQ: the binding score is 0.00915.

For the molecule ARTK(Ac)QTAR(Me2s″)K(Ac)STGGKAPRKQ, the binding score worked out at 0.00915.

As for A[Arg(Me2s)]T[Lys(Me)]QTA[Arg(Me2a)][Lys(Me)]STGGKAPRKQ, the binding score came to 0.

On to SGRGKGGKGLGKGGAKRHR (S G Rme2s G K G G Kac G L G K G G A K R H R), for which the binding score is 0.0294.

Consider SGRGKGGKGLGKGGAKRHR (S G R G K G G K G L G K G G A Kac R H R), for which the binding score is 0.

For ARTKQTARKSTGGKAPRKQ (A Rme2a T Kac Q T A Rme2a Kme2 S T G G K A P R K Q), the binding score worked out at 0.0105.

For ARTKQTARKSTGGKAPRKQ (A Rme2s T Kme3 Q T A Rme2a Kac S T G G K A P R K Q), the binding score stood at 0.00305.

With ARTKQTA[Arg(Me2a)][Lys(Me)]S[pT]GGKAPRKQ, the binding score was found to be 0.

With SGRGKQGGK(Ac)ARAKAKSRSS, the binding score stood at 0.00797.

As for PRKQLATKAA[Arg(Me2s)][Lys(Me2)]SAPATGG, the binding score worked out at 0.

Regarding ART[Lys(Me3)]QTA[Arg(Me2a)][Lys(Me2)]STGGKAPRKQ, the binding score was determined as 0.

Consider ARTKQTARKSTGGKAPRKQ (A R T Kme2 Q T A Rme2a Kac S T G G K A P R K Q), for which the binding score came out at 0.00915.

With PRKQLATKAAR(Me2a″)K(Me3″)[pS]APATGG, the binding score is 0.

In the case of ARTKQTARKSTGGKAPRKQ (A Rme2s T Kme2 Q T A Rme2a Kme3 S T G G K A P R K Q), the binding score was found to be 0.00797.

For A[Arg(Me2a)]T[Lys(Me2)]QTA[Arg(Me2a)][Lys(Me3)]STGGKAPRKQ, the binding score was determined as 0.

As to ARTKQTARKSTGGKAPRKQ (A R T K Q T A R Kme3 S pT G G K A P R K Q), the binding score turned out to be 0.

As to PRKQLATKAAR(Me2a″)K(Ac)[pS]APATGG, the binding score turned out to be 0.

Take ARTKQTARKSTGGKAPRKQ (A R T Kme2 Q T A Rme2s Kme2 S T G G K A P R K Q): the binding score came to 0.00325.

Turning to ARTKQTARKSTGGKAPRKQ (A Rme2s T Kme3 Q T A Rme2s Kme1 S T G G K A P R K Q), the binding score turned out to be 0.00187.

As for ARTKQTARKSTGGKAPRKQ (A R T Kac Q T A Rme2a Kac S T G G K A P R K Q), the binding score stood at 0.0821.

Consider ARTKQTARKSTGGKAPRKQ (A Rme2s T Kac Q T A Rme2a Kac S T G G K A P R K Q), for which the binding score came to 0.0894.
